# Molecular target: N-terminal SmBiT-tagged SETD1A FLOS domain fragment (Sm-FO3)
# Experiment: split-NanoLuciferase-complementation assay with non-tagged competitor
# Settings: Sm-FO3 + N200-Lg with non-tagged competitor construct; parent: est. 3.6; read off a plot
substance,measurement,value
non-tagged BOD1L Shg1 fragment N200 (competitor) (from UniProt Q8NFC6) W104A,response,"7.6 RLU, x10^5"

# Reference: paper PMC11381347
